Source: paper PMC3361975 (Biochemistry, 2012)
Changes are numbered by the printed parent chain. In names and notes the source's numbering stands.

B1: 17X-PTDH-R301A (phosphite dehydrogenase from Pseudomonas stutzeri WM88, 17X background, Arg301Ala) (enzyme, UniProt O69054 1-336, looked up)
chain: MLPKLVITHRVHEEILQLLAPHCELITNQTDSTLTREEILRRCRDAQAMMAFMPDRVDADFLQACPELRVIGCALKGFDNFDVDACTARGVWLTFVPDLLTVPTAELAIGLAVGLGRHLRAADAFVRSGKFRGWQPRFYGTGLDNATVGFLGMGAIGLAMADRLQGWGATLQYHAAKALDTQTEQRLGLRQVACSELFASSDFILLALPLNADTLHLVNAELLALVRPGALLVNPCRGSVVDEAAVLAALERGQLGGYAADVFEMEDWARADRPQQIDPALLAHPNTLFTPHIGSAVRAVALEIERCAAQNILQALAGERPINAVNRLPKANPAAD
B2: 17X-PTDH (thermostable phosphite dehydrogenase mutant TS-PTDH with the additional E175A mutation) (enzyme, Pseudomonas stutzeri WM88, UniProt O69054 1-336, looked up)
chain: B1 chain with A301R

Biological target: the molecule itself
Assay: SEC

| Protein | stoichiometry N | binding result |
| --- | --- | --- |
| B1 | 2 |  |
| B2 |  | binds |
